Assay [1] addresses T1, human ORL-1 receptor (opioid receptor like 1) (human, UniProt P41146 1-370).
T1 construct: whole, on cells; Assays were run on membranes of CHO cells transfected with human ORL-1; also called opiate receptor like 1; nociceptin receptor
Nature of the assay: [3H]nociceptin displacement at ORL1.

In assay [2] the target is T1, human ORL-1 receptor (opioid receptor …). Kind of assay: cell-based or functional assay.
The target is the same in assay [3]. Nature of the assay: binding assay at ORL1 (taken as [3H]nociceptin displacement as in Table 1).

Square brackets hold non-standard residues; d marks the D form. * marks the point of attachment. Heptanoyl = CCCCCCC(=O)*; Hexanoyl = CCCCCC(=O)*; Propionyl = CCC(=O)*; Butyryl = CCCC(=O)*

T1 sequence (P41146 whole entry): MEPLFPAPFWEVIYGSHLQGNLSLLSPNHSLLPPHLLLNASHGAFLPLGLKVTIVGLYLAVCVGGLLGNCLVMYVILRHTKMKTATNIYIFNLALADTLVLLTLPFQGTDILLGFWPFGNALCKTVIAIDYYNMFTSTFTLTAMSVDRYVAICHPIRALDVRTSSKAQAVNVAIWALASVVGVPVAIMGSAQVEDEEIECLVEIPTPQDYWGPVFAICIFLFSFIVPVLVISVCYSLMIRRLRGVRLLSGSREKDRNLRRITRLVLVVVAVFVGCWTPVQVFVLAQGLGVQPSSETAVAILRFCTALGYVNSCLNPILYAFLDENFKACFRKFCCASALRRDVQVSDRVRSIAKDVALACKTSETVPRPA

B1: IV-16-C Propionyl-RYYRWR-NH2 (peptide)
peptide: Propionyl-RYYRWR-NH2
SMILES: CCC(=O)N[C@@H](CCCNC(=N)N)C(=O)N[C@@H](Cc1ccc(O)cc1)C(=O)N[C@@H](Cc1ccc(O)cc1)C(=O)N[C@@H](CCCNC(=N)N)C(=O)N[C@@H](Cc1c[nH]c2ccccc12)C(=O)N[C@@H](CCCNC(=N)N)C(N)=O
notes: see recheck
On to B1, for which, in assay [1], the IC50 was found to be 1.2 nM. For the same molecule, in assay [2], the “[^35S]GTPγS Binding EC50” value amounted to 22.3 nM and the “[^35S]GTPγS Binding Percent Stimulation” value was 82%.

B2: IV-17-C Hexanoyl-RYYRWR-NH2 (peptide)
peptide: Hexanoyl-RYYRWR-NH2
SMILES: CCCCCC(=O)N[C@@H](CCCNC(=N)N)C(=O)N[C@@H](Cc1ccc(O)cc1)C(=O)N[C@@H](Cc1ccc(O)cc1)C(=O)N[C@@H](CCCNC(=N)N)C(=O)N[C@@H](Cc1c[nH]c2ccccc12)C(=O)N[C@@H](CCCNC(=N)N)C(N)=O
B2 displayed an IC50 in assay [1] of 2.6 nM. In addition, in assay [2], the “[^35S]GTPγS Binding Percent Stimulation” value was found to be 18%.

B3: IV-15-A Butryl-RYYRWR-NH2 (peptide)
peptide: Butyryl-RYYRWR-NH2
SMILES: CCCC(=O)N[C@@H](CCCNC(=N)N)C(=O)N[C@@H](Cc1ccc(O)cc1)C(=O)N[C@@H](Cc1ccc(O)cc1)C(=O)N[C@@H](CCCNC(=N)N)C(=O)N[C@@H](Cc1c[nH]c2ccccc12)C(=O)N[C@@H](CCCNC(=N)N)C(N)=O
With B3, the 50% inhibitory concentration (IC50) in assay [1] was 4.3 nM. In addition, in assay [2], the “[^35S]GTPγS Binding EC50” value was determined as 35.3 nM and the “[^35S]GTPγS Binding Percent Stimulation” value stood at 63%.

B4: IV-12-B Ac-RY(D)YR(D)WNH2 (peptide)
peptide: Ac-R[dY]Y[dR]WR-NH2
notes: It is not clear from the print which residues the (D) marks belong to, nor whether the last Arg is missing on purpose
For the molecule B4, the IC50 in assay [1] was 1140 nM. In assay [2], the “[^35S]GTPγS Binding EC50” value was more than 10000 nM and the “[^35S]GTPγS Binding Percent Stimulation” value was less than 10%.

B5: IV-18-C Heptanoyl-RYYRWR-NH2 (peptide)
peptide: Heptanoyl-RYYRWR-NH2
SMILES: CCCCCCC(=O)N[C@@H](CCCNC(=N)N)C(=O)N[C@@H](Cc1ccc(O)cc1)C(=O)N[C@@H](Cc1ccc(O)cc1)C(=O)N[C@@H](CCCNC(=N)N)C(=O)N[C@@H](Cc1c[nH]c2ccccc12)C(=O)N[C@@H](CCCNC(=N)N)C(N)=O
notes: see recheck
B5: the IC50 in assay [1] came to 2.6 nM. Also, in assay [2], the “[^35S]GTPγS Binding EC50” value was 16.9 nM and the “[^35S]GTPγS Binding Percent Stimulation” value stood at 54%.

B6: Ac-RYYRWR-NH2 (peptide)
peptide: Ac-RYYRWR-NH2
notes: also called parent peptide
In assay [1], B6 registered an IC50 of 0.72 nM. Also, in assay [2], the “[^35S]GTPγS Binding EC50” value was 1.2 nM and the “[^35S]GTPγS Binding Percent Stimulation” value was 100%.

B7: IV-43-B Hexanoyl-RYYRWA-NH2 (peptide)
peptide: Hexanoyl-RYYRWA-NH2
SMILES: CCCCCC(=O)N[C@@H](CCCNC(=N)N)C(=O)N[C@@H](Cc1ccc(O)cc1)C(=O)N[C@@H](Cc1ccc(O)cc1)C(=O)N[C@@H](CCCNC(=N)N)C(=O)N[C@@H](Cc1c[nH]c2ccccc12)C(=O)N[C@@H](C)C(N)=O
B7 gave an IC50 in assay [3] of 311 nM.

B8: IV-39-B Hexanoyl-RYYAWR-NH2 (peptide)
peptide: Hexanoyl-RYYAWR-NH2
SMILES: CCCCCC(=O)N[C@@H](CCCNC(=N)N)C(=O)N[C@@H](Cc1ccc(O)cc1)C(=O)N[C@@H](Cc1ccc(O)cc1)C(=O)N[C@@H](C)C(=O)N[C@@H](Cc1c[nH]c2ccccc12)C(=O)N[C@@H](CCCNC(=N)N)C(N)=O
Take B8: the IC50 in assay [3] worked out at 1000 nM.

B9: IV-41-B Hexanoyl-RYYRAR-NH2 (peptide)
peptide: Hexanoyl-RYYRAR-NH2
SMILES: CCCCCC(=O)N[C@@H](CCCNC(=N)N)C(=O)N[C@@H](Cc1ccc(O)cc1)C(=O)N[C@@H](Cc1ccc(O)cc1)C(=O)N[C@@H](CCCNC(=N)N)C(=O)N[C@@H](C)C(=O)N[C@@H](CCCNC(=N)N)C(N)=O
In turn, B9 had an IC50 in assay [3] of 710 nM.

What is called IC50 is the concentration that inhibits the measured activity by half.
